Measurements from the supplement of paper PMC12042874.
± gives the uncertainty stated by the source.

experiment: amyloid nucleation score (Sup35N fusion, yeast selection) (log enrichment); library NNK2; higher = more nucleation; inactive = no reads after selection
Summary of the method: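 Nucleation score: DiMSum log enrichment of output over input reads, centred on the mode score of non-aggregating sequences. Only sequences with at least 100 input reads were kept. Reads came from Illumina sequencing of plasmid inserts before and after 7 days of growth at 30°C without adenine and uracil, in psi-negative yeast expressing Sup35N fused to peptides of 20 random codons after 24 hours of induction with 100 μM copper sulfate.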

| Substance | amyloid nucleation score |
| --- | --- |
| FEAYYWLADLNLLCYLGVRS | 3.79 ± 0.052 |
| SVDRNNTYLYRLKYAFWAMG | 6.644 ± 0.043 |
| SMYVN | -0.384 ± 0.56 |
| STCIMDLSWCKVRRFGSTQV | -0.149 ± 0.79 |
| FLSDATAYH | inactive |
| SVYCSNNNTFDAFYVEWVFA | inactive |
| ELRSLAGIVSWLSLRYPPTE | 2.42 ± 0.23 |
| GIYVEEWGHSVPALRWIDKS | 0.309 ± 0.8 |
| SPYVRWDKTNLIGWEWYRVE | -0.819 ± 0.43 |
| VGKRNLISMVGYPYD | -1.09 ± 0.39 |
| YFYCRYYMNRWNYYL | -0.396 ± 0.33 |
| RFEMRSGLKDKLDKVGS | inactive |
| FGFYFLVSGLCRCDLPFHVL | -0.757 ± 0.76 |
| LAAKFCCQLSFGSFCDCIFR | 7.82 ± 0.084 |
| DELDVFG | -0.893 ± 0.44 |
| AQAMLSNTILIYEYRDLFIV | -0.962 ± 0.78 |
| RTHCSMSYQSRVVVDWLLQK | 4.18 ± 0.087 |
| VSFATRRSSNNILTGW | -0.557 ± 1.1 |
| RRSWCLGFSRDLMSELKGIS | 1.4 ± 0.41 |
| YCGLVWVSKYSVTRAFRRNV | -0.297 ± 0.39 |
| VIMGFFGITFGWCKRSEVHE | 2.49 ± 0.11 |
| TFKMSGINPTD | -1.19 ± 0.3 |
| LCDTVTYWVPLC | 4.28 ± 0.094 |
| KYSIGTETVHGCLQPLCPAH | -0.095 ± 0.46 |
| NYYQR | 0.025 ± 1.1 |

| Substance | amyloid nucleation score |
| --- | --- |
| AFYCQRDRVE | 3.18 ± 0.099 |
| SREYHSCKCQMLYMSQWSKG | -0.787 ± 0.55 |
| DESIEYSDSGGSCSFPVSK | inactive |
| HRVYEFIKPLGPGAHTFVFT | 0.097 ± 1.1 |
| YPNSLYFRPYAFILTEMSHH | inactive |
| YSLYINLSNAGIGVYPLKPA | 7.252 ± 0.062 |
| GGYGLICCYQMLEDSTKDMM | -0.603 ± 1.1 |
| MVHTKYPLWSNSRVLWDSVT | 0.397 ± 0.64 |
| SVRFPITVMFRFSRWFTETY | -0.264 ± 0.37 |
| VGDVKVWTVRSSTNATEKFL | 0.551 ± 0.27 |
| ISFYFSAWDKTVQTRRYIDH | -0.356 ± 0.33 |
| SRCGLLMVSPNAVPSGLAHR | 1.18 ± 0.31 |
| AGPAQQYMCMTCVTSVHTDP | 8.84 ± 0.045 |
| NVVGRYKSSDSLTYARWGWR | -0.064 ± 0.34 |
| YWKVCRM | 0.356 ± 0.74 |
| RTLYGALMIVWVS | 0.004 ± 1.1 |
| ADYGVGSRFFVALFSNVFGV | 8.15 ± 0.071 |
| PYRPHYAAVLRLAR | 0.08 ± 0.33 |
| FLYMQTMLCNSKVFQVSALC | inactive |
| FRNFELSRTFVVYNPVLQCY | -0.473 ± 0.39 |
| RYYVSEPLGDFAWFFPGDHR | inactive |
| NGLSSSTWGPWMYCWCVNMV | 8.751 ± 0.057 |
| SLYDGRVVRMYSRH | 2.65 ± 0.1 |
| VNNGSMFSRGDWCVVLYPTW | 3.45 ± 0.077 |
| YDSLYWCGSWYLGLSWISLR | -0.953 ± 0.62 |

| Substance | amyloid nucleation score |
| --- | --- |
| RNNRLTLVRVSFDVQCEPMV | 0.468 ± 0.46 |
| GYMYCISATCRDLSKGRTGT | -0.221 ± 0.39 |
| AFTCYVETSIIMPNMS | -0.734 ± 0.76 |
| FSIKPLGQKDIR | 5.47 ± 0.073 |
| CDVGFSHRYSSNYDKTWDMI | -0.7 ± 0.78 |
| GECLDR | 2.83 ± 0.075 |
| KEMAFVRGMTARPRYNVNSE | 1.22 ± 0.29 |
| GKRYCWSLAVNRGFTDTLGV | 0.261 ± 0.46 |
| SLYMFLVSALVQSYLLV | -1.4 ± 0.45 |
| REVYWLMCTA | 0.747 ± 0.47 |
| KLIVMGTNPGRVGNGWKRKS | 0.53 ± 0.3 |
| SELRTAKPVN | 0.635 ± 0.26 |
| AVYYGSMWLGQGGIVPW | 1.93 ± 0.15 |
| RKSVWYCDIFIIEYPDFSYS | 2.07 ± 0.1 |
| HDGICSNSGVVSINKNGNYD | 1.27 ± 0.29 |
| GSWLFREVMPA | -0.51 ± 0.44 |
| KICSYPR | 2.46 ± 0.11 |
| RQSIEISYLYISFGHKYR | 5.98 ± 0.083 |
| GRLSISDYIY | 1.02 ± 0.61 |
| FWVVIVAHSVSWLLLTWQLE | 0.553 ± 0.65 |
| VSGCV | -0.865 ± 0.54 |
| KAWTLVRHDVLLYV | -0.316 ± 0.44 |
| CNRPGSGTHGRCTVMDSTMG | 0.389 ± 0.56 |
| CNRSCLLGDNPCTVWRITLF | -0.644 ± 0.48 |
| DVQHFIWCCNATVTYPLLVL | 1.27 ± 0.22 |

| Substance | amyloid nucleation score |
| --- | --- |
| SLEGLSCFTLANCLLR | 0.288 ± 0.24 |
| GVFSLRKGGCRDW | -0.567 ± 1.1 |
| LRTTGLHFSSRLMVFTLNWI | -0.237 ± 0.33 |
| TGCVKGYSSRWWESFYGGTR | -0.762 ± 0.79 |
| SLLVDALR | 0.513 ± 0.39 |
| YHMGDGLDVWGRDRSG | 0.901 ± 0.27 |
| WHNYSYSRGIRRCHQMKHKR | 1.46 ± 0.15 |
| IISTIT | 1.49 ± 0.14 |
| EELKYYSISVMLRGRHALLI | -0.894 ± 0.56 |
| SLYVVQYCRSRYLVNCTDRV | 0.129 ± 0.33 |
| SGTDDLCMVPLGYLLTMRLP | 0.7 ± 0.39 |
| MLIIKVLCSMCIVIFLTLIC | 2.55 ± 0.18 |
| MYCLHCTTSCWSRLRLVNNF | 2.98 ± 0.16 |
| RLSRYFLRFWWAYDYDSN | 0.101 ± 0.54 |
| SKHWTCS | 0.426 ± 0.57 |
| TTNSFINLVYMNMHK | 6.63 ± 0.075 |
| LVIRAKYYNPRTWGKFLHPV | -0.381 ± 0.28 |
| HCSFG | 2.32 ± 0.12 |
| YSGRSAWLMLCGRPVRR | 1.11 ± 0.33 |
| CPSVSSRSRELSLLTDQEVI | 0.812 ± 0.4 |
| RITFV | -0.64 ± 0.76 |
| IAKMSFAINNDIYNCRFIST | 2.46 ± 0.11 |
| SLIFSDPHLVIALNFT | 8.898 ± 0.061 |
| NGLESYDFTQLY | -0.667 ± 0.64 |
| FTRRSGSRLWTRFALGDWVA | inactive |

| Substance | amyloid nucleation score |
| --- | --- |
| TLDVGLGAAQCVIGISGWYE | 1.1 ± 0.15 |
| FSRCTSVEV | -0.699 ± 1 |
| RGSYMVPWHVERIIGNSRVS | -0.899 ± 0.23 |
| SLVLV | 0.803 ± 0.47 |
| AVEQWQ | 1.58 ± 0.37 |
| GIFTTWNRISRRLCLRVHYP | -0.497 ± 0.34 |
| NRRLRHIWRNNSLTSKN | -0.279 ± 0.25 |
| TFYYTAECWAWRNMQESSHT | 0.054 ± 0.32 |
| KCGEKRMKCFSDCRRWWLCQ | 4.88 ± 0.068 |
| YISSKYYWSTVKCFAFNTFH | -0.594 ± 0.42 |
| LSQCYSRLLVSTMKSH | 0.854 ± 0.14 |
| GVVYLGNRLISFSRSLSLKT | 0.387 ± 0.45 |
| GLGVSTKRLYFTMMADCFNG | 0.131 ± 0.49 |
| FLLDAPKLAEDEYPHGSDDN | inactive |
| SFPRRMPSD | 2.38 ± 0.071 |
| VRWMITHNFRVF | inactive |
| TIRRVRSALQQHM | 0.041 ± 0.49 |
| SQSNMILYWADRF | 5.33 ± 0.057 |
| GNIAVYNDAILLVWDNESRT | -0.714 ± 1 |
| NLSRRCKIADWSIHCATIHE | -0.235 ± 1.1 |
| LSRCWVMSQQCKKSAGVFYA | -0.026 ± 0.55 |
| LYYLFSKFILRDETSSSQKK | inactive |
| STVELEQYGSSARADYLVWR | 0.58 ± 0.64 |
| NRGSGSAGMVSLLNNSWRWA | 1.48 ± 0.43 |
| LFISFAACGTF | 2.09 ± 0.11 |

| Substance | amyloid nucleation score |
| --- | --- |
| TRLVWIFLSPM | -0.169 ± 0.25 |
| GDKYICELHWRFLGQNSVW | 4.07 ± 0.11 |
| NQYLSMRTAHSGEVYQPLVF | 0.859 ± 0.8 |
| LCDLVKASSMFANGSDHFIV | -0.569 ± 0.61 |
| VCRNDRLVWCKLGVEFSGVA | 1.31 ± 0.26 |
| WKALAS | 1.74 ± 0.11 |
| DSSYG | 0.285 ± 0.74 |
| SFSHGSDAIGNVYCDNIVYK | inactive |
| PGMPARVHTCLSAMTYNFMC | -0.901 ± 0.44 |
| NPVRISL | 0.214 ± 0.28 |
| QGSNCLHYRLSIIS | -1.05 ± 1.1 |
| LLLASAMWYGKLIRMRLLG | 0.659 ± 0.48 |
| VCCRDKMSHCRSAALNMVLL | 3.49 ± 0.12 |
| RFWSMETEHDIIALVFASSV | 0.096 ± 0.49 |
| VKTRTFRTCRSHRIEFMDWV | -0.064 ± 1.1 |
| CHDMSSACLYSVGWS | inactive |
| QPSFPTHCQDRFVEECINEV | inactive |
| SHTPLTG | -0.939 ± 1 |
| WFMFCNLGLGTPIGMITLRS | -1.16 ± 0.56 |
| YNVDVFWYGLKFNDLVVVHF | 3.73 ± 0.13 |
| EFLRNGLFKEVAS | 0.202 ± 0.64 |
| MNIVVYVHLGVSAQVSMAHR | 8.407 ± 0.041 |
| MNGIFVNLKSKIRTFCRSVY | 2.67 ± 0.11 |
| IVCITTSNVLTCDIDGNITK | 4.27 ± 0.044 |
| SCAHKELCQSVLRDVYWCTL | -0.224 ± 0.79 |

| Substance | amyloid nucleation score |
| --- | --- |
| CTLRAVMSIVRGYFRCYLVC | 0.255 ± 1.1 |
| MWWYSFPLGLLWVFNS | inactive |
| YAPLSTDPYILVHCIRPRLA | -0.558 ± 1 |
| EDHSGF | -1.15 ± 0.28 |
| EVDLRKSGLSGRVKFYLMLW | 0.839 ± 0.57 |
| SLEGLLRPRKLVSCIDT | inactive |
| YDIVVNYLNHHQR | 4.88 ± 0.11 |
| VFWLNGWYCYI | 3.65 ± 0.056 |
| AEADGYLFSALHTPYWTSGV | 0.294 ± 0.64 |
| RCRILA | 2.51 ± 0.1 |
| VIIFFFVFRCMPDLIQVYCV | -1.72 ± 1 |
| CDLLVPQRYSAGLPLPVVKE | 1.8 ± 0.24 |
| TVWYCALSL | 10.61 ± 0.07 |
| HDTESTLVTVLRAFLHRCDY | 0.411 ± 0.56 |
| VLVMLGGNSARVSCNWVM | 7.457 ± 0.031 |
| CRRVIAESFYDTSLSCSAVG | 0.877 ± 0.47 |
| VHICRTNDG | 0.632 ± 0.44 |
| SGNIIFNRRMRRAALEWDIT | -0.125 ± 0.63 |
| KYDGAFQRGGIIQISYLCLW | 4.87 ± 0.071 |
| VNVEYSSMHKLCAW | 0.201 ± 0.46 |
| CCGLGELNLALLRELSWRVG | 1.34 ± 0.25 |
